# In paper PMC9482650, “Quantitative fragmentomics allow affinity mapping of interactomes” (Nature Communications, 2022):
# T1: ARHGAP21, Q5T5U3
# T1 sequence (Q5T5U3 45-169, limits assumed, looked up): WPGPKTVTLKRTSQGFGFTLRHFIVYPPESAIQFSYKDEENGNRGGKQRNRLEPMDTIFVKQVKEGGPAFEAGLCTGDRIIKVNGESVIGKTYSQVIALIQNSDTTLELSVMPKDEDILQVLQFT
# T2: DFNB31_2, Q9P202
# T2 sequence (Q9P202 274-371, limits assumed, looked up): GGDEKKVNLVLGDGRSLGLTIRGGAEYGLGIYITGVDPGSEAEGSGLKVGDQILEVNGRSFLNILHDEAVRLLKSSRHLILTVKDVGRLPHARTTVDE
# T3: DLG3_2, Q92796
# T3 sequence (Q92796 221-321, limits assumed, looked up): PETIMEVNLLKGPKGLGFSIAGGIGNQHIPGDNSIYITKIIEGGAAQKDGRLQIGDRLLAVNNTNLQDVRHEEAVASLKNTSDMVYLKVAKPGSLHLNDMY
# T4: GRIP1_3, Q9Y3R0
# T4 sequence (Q9Y3R0 247-346, limits assumed, looked up): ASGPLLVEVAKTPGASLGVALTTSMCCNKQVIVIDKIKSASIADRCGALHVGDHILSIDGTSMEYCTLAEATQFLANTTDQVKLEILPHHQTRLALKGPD
# T5: HTRA4, P83105
# T5 sequence (P83105 378-476, limits assumed, looked up): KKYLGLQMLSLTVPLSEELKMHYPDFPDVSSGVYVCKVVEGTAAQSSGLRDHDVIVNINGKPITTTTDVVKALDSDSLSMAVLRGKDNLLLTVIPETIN
# T6: LIN7B, Q9HAP6
# T6 sequence (Q9HAP6 88-185, limits assumed, looked up): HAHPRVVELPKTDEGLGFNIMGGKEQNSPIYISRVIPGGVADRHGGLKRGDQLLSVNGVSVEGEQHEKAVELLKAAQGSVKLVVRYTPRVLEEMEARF
# T7: MPP6, Q9NZW5
# T7 sequence (Q9NZW5 125-219, limits assumed, looked up): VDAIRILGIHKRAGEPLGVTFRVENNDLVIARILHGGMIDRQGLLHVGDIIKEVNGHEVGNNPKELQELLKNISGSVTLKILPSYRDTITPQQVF
# T8: MPP7, Q5T2T1
# T8 sequence (Q5T2T1 134-230, limits assumed, looked up): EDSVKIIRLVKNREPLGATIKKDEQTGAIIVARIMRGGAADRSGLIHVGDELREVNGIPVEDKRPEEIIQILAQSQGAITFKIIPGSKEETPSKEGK
# T9: NHERF3_1, Q5T2W1
# T9 sequence (Q5T2W1 4-100, limits assumed, looked up): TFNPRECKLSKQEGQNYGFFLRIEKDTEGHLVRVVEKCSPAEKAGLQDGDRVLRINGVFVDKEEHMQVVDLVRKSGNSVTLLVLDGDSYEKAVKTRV
# T10: PDZRN3_1, Q9UPQ7
# T10 sequence (Q9UPQ7 244-349, limits assumed, looked up): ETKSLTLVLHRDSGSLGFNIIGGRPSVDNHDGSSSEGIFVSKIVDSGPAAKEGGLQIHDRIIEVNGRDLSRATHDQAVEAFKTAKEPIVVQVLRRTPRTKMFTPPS
# T11: SNTG1, Q9NSN8
# T11 sequence (Q9NSN8 52-150, limits assumed, looked up): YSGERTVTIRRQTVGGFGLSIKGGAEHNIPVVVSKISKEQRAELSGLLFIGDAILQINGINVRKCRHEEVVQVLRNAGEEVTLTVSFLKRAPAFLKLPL
# T12: SYNJ2BP, P57105
# T12 sequence (P57105 8-110, limits assumed, looked up): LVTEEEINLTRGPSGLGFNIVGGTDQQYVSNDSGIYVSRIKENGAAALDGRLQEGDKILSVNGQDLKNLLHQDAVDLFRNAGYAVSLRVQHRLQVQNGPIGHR
# B1: GAB3, Q8WWW8 (peptide)
# chain: EWTDERQSKV
# B2: ADGRA2, Q96PE1 (peptide)
# chain: TGLWKSETTV
# B3: KCNT1, Q5JUK3 (peptide)
# chain: NPETRDETQL
# B4: CLDN9, O95484 (peptide)
# chain: ASGLDKRDYV
# B5: PLEKHG7, Q6ZR37 (peptide)
# chain: FTLPAESSEI
# B6: SEMA4C, Q9C0C4 (peptide)
# chain: PDSNPEESSV
# Target: T1, ARHGAP21, Q5T5U3
# Experiment: holdup assay
# Design: key: below the threshold = too weak to quantify, mostly under pKd 3.1 to 4
# Details: plain residues with an end cap or a label only (N-terminal biotin on a linker: ado-ado)
row,pKd,Binder
1,4.07,B1
2,4.03,B2
3,4.02,B3
4,below the threshold,B4
5,below the threshold,B5
6,4.09,B6

# Target: T2, DFNB31_2, Q9P202
# Experiment: holdup assay
# Design: key: below the threshold = too weak to quantify, mostly under pKd 3.1 to 4
# Details: plain residues with an end cap or a label only (N-terminal biotin on a linker: ado-ado)
row,pKd,Binder
1,3.75,B1
2,below the threshold,B2
3,below the threshold,B3
4,below the threshold,B4
5,below the threshold,B5
6,below the threshold,B6

# Target: T3, DLG3_2, Q92796
# Experiment: holdup assay
# Design: key: below the threshold = too weak to quantify, mostly under pKd 3.1 to 4
# Details: plain residues with an end cap or a label only (N-terminal biotin on a linker: ado-ado)
row,pKd,Binder
1,below the threshold,B1
2,5.07,B2
3,below the threshold,B3
4,below the threshold,B4
5,4.19,B5
6,3.73,B6

# Target: FRMPD2_3, Q68DX3
# Sequence (Q68DX3 1073-1166): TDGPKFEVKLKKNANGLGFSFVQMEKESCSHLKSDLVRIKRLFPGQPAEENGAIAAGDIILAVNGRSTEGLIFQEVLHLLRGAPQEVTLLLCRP
# Experiment: holdup assay
# Design: key: below the threshold = too weak to quantify, mostly under pKd 3.1 to 4
# Details: plain residues with an end cap or a label only (N-terminal biotin on a linker: ado-ado)
row,pKd,Binder
1,3.55,B1
2,below the threshold,B2
3,below the threshold,B3
4,below the threshold,B4
5,below the threshold,B5
6,3.54,B6

# Target: GIPC2, Q8TF65
# Sequence (Q8TF65 112-203): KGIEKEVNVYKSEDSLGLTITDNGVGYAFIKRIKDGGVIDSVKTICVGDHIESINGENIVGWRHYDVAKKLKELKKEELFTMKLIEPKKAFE
# Experiment: holdup assay
# Design: key: below the threshold = too weak to quantify, mostly under pKd 3.1 to 4
# Details: plain residues with an end cap or a label only (N-terminal biotin on a linker: ado-ado)
row,pKd,Binder
1,3.52,B1
2,4.04,B2
3,3.49,B3
4,below the threshold,B4
5,below the threshold,B5
6,3.87,B6

# Target: T4, GRIP1_3, Q9Y3R0
# Experiment: holdup assay
# Design: key: below the threshold = too weak to quantify, mostly under pKd 3.1 to 4
# Details: plain residues with an end cap or a label only (N-terminal biotin on a linker: ado-ado)
row,pKd,Binder
1,below the threshold,B1
2,below the threshold,B2
3,below the threshold,B3
4,below the threshold,B4
5,below the threshold,B5
6,below the threshold,B6

# Target: GRIP2_5, Q9C0E4
# Sequence (Q9C0E4 544-642): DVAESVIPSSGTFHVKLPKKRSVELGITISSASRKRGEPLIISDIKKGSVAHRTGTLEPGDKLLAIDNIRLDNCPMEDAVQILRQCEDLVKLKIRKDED
# Experiment: holdup assay
# Design: key: below the threshold = too weak to quantify, mostly under pKd 3.1 to 4
# Details: plain residues with an end cap or a label only (N-terminal biotin on a linker: ado-ado)
row,pKd,Binder
1,below the threshold,B1
2,below the threshold,B2
3,below the threshold,B3
4,below the threshold,B4
5,below the threshold,B5
6,below the threshold,B6

# Target: GRIP2_7, Q9C0E4
# Sequence (Q9C0E4 934-1023): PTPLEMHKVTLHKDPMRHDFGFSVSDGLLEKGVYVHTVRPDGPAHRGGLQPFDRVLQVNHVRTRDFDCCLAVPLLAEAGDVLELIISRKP
# Experiment: holdup assay
# Design: key: below the threshold = too weak to quantify, mostly under pKd 3.1 to 4
# Details: plain residues with an end cap or a label only (N-terminal biotin on a linker: ado-ado)
row,pKd,Binder
1,below the threshold,B1
2,below the threshold,B2
3,below the threshold,B3
4,below the threshold,B4
5,below the threshold,B5
6,below the threshold,B6

# Target: T5, HTRA4, P83105
# Experiment: holdup assay
# Design: key: below the threshold = too weak to quantify, mostly under pKd 3.1 to 4
# Details: plain residues with an end cap or a label only (N-terminal biotin on a linker: ado-ado)
row,pKd,Binder
1,below the threshold,B1
2,below the threshold,B2
3,below the threshold,B3
4,below the threshold,B4
5,3.5,B5
6,below the threshold,B6

# Target: Inadl_10, Q8NI35
# Sequence (Q8NI35 1673-1763): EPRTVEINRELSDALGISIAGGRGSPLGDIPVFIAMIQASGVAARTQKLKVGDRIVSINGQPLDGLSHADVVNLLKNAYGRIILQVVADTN
# Experiment: holdup assay
# Design: key: below the threshold = too weak to quantify, mostly under pKd 3.1 to 4
# Details: plain residues with an end cap or a label only (N-terminal biotin on a linker: ado-ado)
row,pKd,Binder
1,below the threshold,B1
2,below the threshold,B2
3,below the threshold,B3
4,below the threshold,B4
5,below the threshold,B5
6,below the threshold,B6

# Target: Inadl_2, Q8NI35
# Sequence (Q8NI35 238-335): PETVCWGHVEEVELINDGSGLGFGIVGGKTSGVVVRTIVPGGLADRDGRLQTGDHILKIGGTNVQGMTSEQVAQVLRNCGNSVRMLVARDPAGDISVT
# Experiment: holdup assay
# Design: key: below the threshold = too weak to quantify, mostly under pKd 3.1 to 4
# Details: plain residues with an end cap or a label only (N-terminal biotin on a linker: ado-ado)
row,pKd,Binder
1,below the threshold,B1
2,below the threshold,B2
3,below the threshold,B3
4,below the threshold,B4
5,below the threshold,B5
6,below the threshold,B6

# Target: Inadl_6, Q8NI35
# Sequence (Q8NI35 1058-1167): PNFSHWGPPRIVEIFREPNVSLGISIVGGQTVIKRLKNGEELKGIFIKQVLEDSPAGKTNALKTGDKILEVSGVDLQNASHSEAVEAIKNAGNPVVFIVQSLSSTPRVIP
# Experiment: holdup assay
# Design: key: below the threshold = too weak to quantify, mostly under pKd 3.1 to 4
# Details: plain residues with an end cap or a label only (N-terminal biotin on a linker: ado-ado)
row,pKd,Binder
1,below the threshold,B1
2,below the threshold,B2
3,3.76,B3
4,below the threshold,B4
5,below the threshold,B5
6,below the threshold,B6

# Target: LDB3, O75112
# Sequence (O75112 1-94): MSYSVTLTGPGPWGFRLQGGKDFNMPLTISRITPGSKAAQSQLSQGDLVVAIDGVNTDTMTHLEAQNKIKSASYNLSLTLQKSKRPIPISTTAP
# Experiment: holdup assay
# Design: key: below the threshold = too weak to quantify, mostly under pKd 3.1 to 4
# Details: plain residues with an end cap or a label only (N-terminal biotin on a linker: ado-ado)
row,pKd,Binder
1,below the threshold,B1
2,below the threshold,B2
3,below the threshold,B3
4,below the threshold,B4
5,below the threshold,B5
6,below the threshold,B6

# Target: T6, LIN7B, Q9HAP6
# Experiment: holdup assay
# Design: key: below the threshold = too weak to quantify, mostly under pKd 3.1 to 4
# Details: plain residues with an end cap or a label only (N-terminal biotin on a linker: ado-ado)
row,pKd,Binder
1,below the threshold,B1
2,3.51,B2
3,below the threshold,B3
4,below the threshold,B4
5,3.61,B5
6,below the threshold,B6

# Target: MAGI1_2, Q96QZ7
# Sequence (Q96QZ7 456-580): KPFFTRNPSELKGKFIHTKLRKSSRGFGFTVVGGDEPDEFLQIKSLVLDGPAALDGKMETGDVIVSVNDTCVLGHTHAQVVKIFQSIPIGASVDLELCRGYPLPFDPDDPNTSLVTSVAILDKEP
# Experiment: holdup assay
# Design: key: below the threshold = too weak to quantify, mostly under pKd 3.1 to 4
# Details: plain residues with an end cap or a label only (N-terminal biotin on a linker: ado-ado)
row,pKd,Binder
1,below the threshold,B1
2,4.92,B2
3,below the threshold,B3
4,below the threshold,B4
5,below the threshold,B5
6,below the threshold,B6

# Target: MAGI2_5, Q86UL8
# Sequence (Q86UL8 915-1017): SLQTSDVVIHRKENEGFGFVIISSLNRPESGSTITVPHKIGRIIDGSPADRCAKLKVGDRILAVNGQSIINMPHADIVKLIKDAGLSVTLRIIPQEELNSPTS
# Experiment: holdup assay
# Design: key: below the threshold = too weak to quantify, mostly under pKd 3.1 to 4
# Details: plain residues with an end cap or a label only (N-terminal biotin on a linker: ado-ado)
row,pKd,Binder
1,3.95,B1
2,4.12,B2
3,3.75,B3
4,below the threshold,B4
5,below the threshold,B5
6,3.89,B6

# Target: MAGI3_2, Q5TCQ9
# Sequence (Q5TCQ9 398-503): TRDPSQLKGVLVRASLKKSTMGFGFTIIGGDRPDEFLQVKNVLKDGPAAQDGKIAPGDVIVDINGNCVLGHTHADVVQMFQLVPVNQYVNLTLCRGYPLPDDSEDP
# Experiment: holdup assay
# Design: key: below the threshold = too weak to quantify, mostly under pKd 3.1 to 4
# Details: plain residues with an end cap or a label only (N-terminal biotin on a linker: ado-ado)
row,pKd,Binder
1,3.6,B1
2,5.6,B2
3,below the threshold,B3
4,below the threshold,B4
5,below the threshold,B5
6,3.77,B6

# Target: T7, MPP6, Q9NZW5
# Experiment: holdup assay
# Design: key: below the threshold = too weak to quantify, mostly under pKd 3.1 to 4
# Details: plain residues with an end cap or a label only (N-terminal biotin on a linker: ado-ado)
row,pKd,Binder
1,below the threshold,B1
2,3.85,B2
3,3.74,B3
4,3.69,B4
5,below the threshold,B5
6,below the threshold,B6

# Target: T8, MPP7, Q5T2T1
# Experiment: holdup assay
# Design: key: below the threshold = too weak to quantify, mostly under pKd 3.1 to 4
# Details: plain residues with an end cap or a label only (N-terminal biotin on a linker: ado-ado)
row,pKd,Binder
1,below the threshold,B1
2,below the threshold,B2
3,below the threshold,B3
4,below the threshold,B4
5,below the threshold,B5
6,below the threshold,B6

# Target: T9, NHERF3_1, Q5T2W1
# Experiment: holdup assay
# Design: key: below the threshold = too weak to quantify, mostly under pKd 3.1 to 4
# Details: plain residues with an end cap or a label only (N-terminal biotin on a linker: ado-ado)
row,pKd,Binder
1,4.36,B1
2,below the threshold,B2
3,5.27,B3
4,4.46,B4
5,3.52,B5
6,3.56,B6

# Target: T10, PDZRN3_1, Q9UPQ7
# Experiment: holdup assay
# Design: key: below the threshold = too weak to quantify, mostly under pKd 3.1 to 4
# Details: plain residues with an end cap or a label only (N-terminal biotin on a linker: ado-ado)
row,pKd,Binder
1,3.62,B1
2,4.07,B2
3,4.47,B3
4,below the threshold,B4
5,below the threshold,B5
6,4.37,B6

# Target: PICK1, Q9NRD5
# Sequence (Q9NRD5 17-115): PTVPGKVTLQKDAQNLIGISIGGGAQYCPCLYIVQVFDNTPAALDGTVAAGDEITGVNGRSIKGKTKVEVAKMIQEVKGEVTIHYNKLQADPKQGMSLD
# Experiment: holdup assay
# Design: key: below the threshold = too weak to quantify, mostly under pKd 3.1 to 4
# Details: plain residues with an end cap or a label only (N-terminal biotin on a linker: ado-ado)
row,pKd,Binder
1,below the threshold,B1
2,below the threshold,B2
3,below the threshold,B3
4,below the threshold,B4
5,3.99,B5
6,below the threshold,B6

# Target: T11, SNTG1, Q9NSN8
# Experiment: holdup assay
# Design: key: below the threshold = too weak to quantify, mostly under pKd 3.1 to 4
# Details: plain residues with an end cap or a label only (N-terminal biotin on a linker: ado-ado)
row,pKd,Binder
1,3.97,B1
2,4.21,B2
3,below the threshold,B3
4,below the threshold,B4
5,below the threshold,B5
6,4.65,B6

# Target: T12, SYNJ2BP, P57105
# Experiment: holdup assay
# Design: key: below the threshold = too weak to quantify, mostly under pKd 3.1 to 4
# Details: plain residues with an end cap or a label only (N-terminal biotin on a linker: ado-ado)
row,pKd,Binder
1,3.72,B1
2,5.08,B2
3,4.43,B3
4,below the threshold,B4
5,3.98,B5
6,5.09,B6
